Test results as given in patent publication US20030068675, “Position dependent recognition of GNN nucleotide triplets by zinc fingers” (published 2003).
Changes are numbered by the printed parent chain.

Experiments:
Experiment in all cases: EMSA
Conditions in all cases: tags: MBP fusion
ZFP SBS#781 = ZFP SBS#781 (synthetic, UniProt P08047)
Outline: (§1)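 Purified ZFP was titrated against labeled double-stranded target (1 nM or lower, at least 10-fold below expected Kd) carrying the natural binding site with flanks. Binding buffer was 10 mM Tris pH 7.5, 100 mM KCl, 1 mM MgCl2, 0.1 mM ZnCl2, 5 mM DTT, 10% glycerol, 0.02% BSA, with equilibration for at least 45 min. Bound and free target were separated on a 10% polyacrylamide gel.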

ZFP SBS#761 = target: T1, ZFP SBS#761 (synthetic)
T1 chain: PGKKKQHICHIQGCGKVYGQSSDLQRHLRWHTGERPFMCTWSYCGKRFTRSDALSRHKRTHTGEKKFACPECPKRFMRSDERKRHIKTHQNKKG
Outline: as §1

ZFP SBS#762 = ZFP SBS#762 (synthetic, UniProt P08047)
Outline: as §1

ZFP SBS#727 = ZFP SBS#727 (synthetic, UniProt P08047)
Outline: as §1

ZFP SBS#735 = target: T2, ZFP SBS#735 (synthetic)
T2 chain: T1 chain with Q25T
Outline: as §1

ZFP SBS#431 = target: T3, ZFP SBS#431 (synthetic)
T3 chain: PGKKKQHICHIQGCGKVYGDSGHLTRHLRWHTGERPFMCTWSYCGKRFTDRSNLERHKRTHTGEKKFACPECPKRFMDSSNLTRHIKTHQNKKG
Outline: as §1

ZFP SBS#748 = target: T4, ZFP SBS#748 (synthetic)
T4 chain: T3 chain with D78R, S79G, S80D, N81A, R84S
Outline: as §1

ZFP SBS#749 = target: T5, ZFP SBS#749 (synthetic)
T5 chain: T3 chain with S21R, G22S, R51S, E55T, D78R, S79G, S80D, N81A, R84S
Outline: as §1

ZFP SBS#759 = target: T6, ZFP SBS#759 (synthetic)
T6 chain: T3 chain with R51S, E55T, D78R, S79G, S80D, N81A, R84S
Outline: as §1

ZFP SBS#760 = target: T7, ZFP SBS#760 (synthetic)
T7 chain: T3 chain with S21R, G22S, D78R, S79G, S80D, N81A, R84S
Outline: as §1

ZFP SBS#909 = ZFP SBS#909 (synthetic)
Outline: as §1

ZFP SBS#256 = target: T8, ZFP SBS#256 (synthetic)
T8 chain: T1 chain with Q20E, S21R, S22G, Q25T, R26T, A53H, R82L, K83R
Outline: as §1

ZFP SBS#916 = ZFP SBS#916 (synthetic)
Outline: as §1

ZFP SBS#780 = ZFP SBS#780 (synthetic)
Outline: as §1

ZFP SBS#779 = ZFP SBS#779 (synthetic)
Outline: as §1

ZFP SBS#905 = target: T9, ZFP SBS#905 (synthetic)
T9 chain: T1 chain with Q20R, D23A, Q25T, A53S, S55A, E81S, R82L, K83A
Outline: as §1

ZFP SBS#926 = target: T10, ZFP SBS#926 (synthetic)
T10 chain: T1 chain with Q20R, S22D, D23A, Q25T, A53S, S55A, E81S, R82L, K83A
Outline: as §1

ZFP SBS#920 = ZFP SBS#920 (synthetic)
Outline: as §1

ZFP SBS#777 = target: T11, ZFP SBS#777 (synthetic)
T11 chain: T3 chain with D20R, G22D, T25A, E55T, D78R, S80D, N81A, T83S, R84A
Outline: as §1

ZFP SBS#776 = target: T12, ZFP SBS#776 (synthetic)
T12 chain: T3 chain with D20R, G22D, T25A, D78R, S80D, N81S, T83N, R84Q
Outline: as §1

ZFP SBS#826 = target: T13, ZFP SBS#826 (synthetic)
T13 chain: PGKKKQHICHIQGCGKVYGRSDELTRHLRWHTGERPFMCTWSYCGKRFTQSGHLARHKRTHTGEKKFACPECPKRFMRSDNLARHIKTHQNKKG
Outline: as §1

ZFP SBS#827 = target: T14, ZFP SBS#827 (synthetic)
T14 chain: T13 chain with S21A, E23T, T25R
Outline: as §1

ZFP SBS#750 = ZFP SBS#750 (synthetic)
Outline: as §1

ZFP SBS#787 = target: T15, ZFP SBS#787 (synthetic)
T15 chain: T1 chain with S22D, D23N, Q25A, A53N, S55A, E81H, R82L, K83T, R84Q
Outline: as §1

ZFP SBS#783 = ZFP SBS#783 (synthetic)
Outline: as §1

ZFP SBS#786 = ZFP SBS#786 (synthetic)
Outline: as §1

ZFP SBS#785 = ZFP SBS#785 (synthetic)
Outline: as §1

ZFP SBS#904 = ZFP SBS#904 (synthetic)
Outline: as §1

ZFP SBS#927 = target: T16, ZFP SBS#927 (synthetic)
T16 chain: T13 chain with E23N, T25A, Q50T, H53S, A55T, A83R, R84E
Outline: as §1

ZFP SBS#928 = target: T17, ZFP SBS#928 (synthetic)
T17 chain: T13 chain with E23N, T25A, G52S, H53A, A55T, A83R, R84E
Outline: as §1

ZFP SBS#929 = target: T18, ZFP SBS#929 (synthetic)
T18 chain: T13 chain with R20Q, D22S, E23N, T25A, G52A, H53T, A83R, R84E
Outline: as §1

ZFP SBS#912 = target: T19, ZFP SBS#912 (synthetic)
T19 chain: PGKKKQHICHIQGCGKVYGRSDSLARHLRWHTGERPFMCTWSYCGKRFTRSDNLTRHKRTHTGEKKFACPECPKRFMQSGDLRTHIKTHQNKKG
Outline: as §1

ZFP SBS#914 = ZFP SBS#914 (synthetic)
Outline: as §1

ZFP SBS#915 = ZFP SBS#915 (synthetic)
Outline: as §1

ZFP SBS#922 = target: T20, ZFP SBS#922 (synthetic)
T20 chain: T3 chain with D20Q, G22H, H23D, R26K, N53A, E55A, D78R, S80D, T83R, R84Q
Outline: as §1

ZFP SBS#908 = target: T21, ZFP SBS#908 (synthetic)
T21 chain: T3 chain with D20Q, H23D, T25R, R26T, N53A, E55A, D78R, S80D, T83R, R84Q
Outline: as §1

ZFP SBS#921 = ZFP SBS#921 (synthetic)
Outline: as §1

ZFP SBS#923 = ZFP SBS#923 (synthetic)
Outline: as §1

ZFP SBS#785 (synthetic), sequence (chain, as listed by the source): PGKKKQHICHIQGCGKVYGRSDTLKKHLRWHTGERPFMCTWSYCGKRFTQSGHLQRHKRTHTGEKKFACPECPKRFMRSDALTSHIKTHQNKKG
ZFP SBS#909 (synthetic), sequence (chain, as listed by the source): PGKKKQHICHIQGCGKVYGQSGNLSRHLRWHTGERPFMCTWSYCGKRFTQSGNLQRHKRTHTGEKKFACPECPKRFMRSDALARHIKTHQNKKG
ZFP SBS#921 (synthetic), sequence (chain, as listed by the source): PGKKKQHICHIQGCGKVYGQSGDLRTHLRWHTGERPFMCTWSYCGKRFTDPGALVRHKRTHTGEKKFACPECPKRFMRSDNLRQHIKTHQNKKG
ZFP SBS#916 (synthetic), sequence (chain, as listed by the source): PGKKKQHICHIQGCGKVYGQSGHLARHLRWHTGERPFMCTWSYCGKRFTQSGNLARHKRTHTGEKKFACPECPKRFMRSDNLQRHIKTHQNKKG
ZFP SBS#786 (synthetic), sequence (chain, as listed by the source): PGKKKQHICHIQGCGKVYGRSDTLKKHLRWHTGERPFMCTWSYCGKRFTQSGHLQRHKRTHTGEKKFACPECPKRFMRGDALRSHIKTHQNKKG
ZFP SBS#914 (synthetic), sequence (chain, as listed by the source): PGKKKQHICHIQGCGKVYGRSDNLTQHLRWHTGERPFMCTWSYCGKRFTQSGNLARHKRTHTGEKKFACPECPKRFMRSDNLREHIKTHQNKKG
ZFP SBS#904 (synthetic), sequence (chain, as listed by the source): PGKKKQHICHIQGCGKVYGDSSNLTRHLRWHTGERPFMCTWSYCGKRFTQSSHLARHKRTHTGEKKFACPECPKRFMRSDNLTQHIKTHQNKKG
ZFP SBS#762, sequence (P08047 other isoform, or with tags, fused parts or gaps): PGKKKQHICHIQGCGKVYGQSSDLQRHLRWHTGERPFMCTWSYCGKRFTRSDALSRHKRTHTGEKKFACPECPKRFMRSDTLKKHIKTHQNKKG
ZFP SBS#780 (synthetic), sequence (chain, as listed by the source): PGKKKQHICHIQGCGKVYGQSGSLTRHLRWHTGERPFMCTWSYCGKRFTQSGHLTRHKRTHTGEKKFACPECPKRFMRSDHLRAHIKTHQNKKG
ZFP SBS#923 (synthetic), sequence (chain, as listed by the source): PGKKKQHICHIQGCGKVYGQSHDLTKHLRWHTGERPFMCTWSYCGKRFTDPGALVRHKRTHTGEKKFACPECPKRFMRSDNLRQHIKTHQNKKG
ZFP SBS#915 (synthetic), sequence (chain, as listed by the source): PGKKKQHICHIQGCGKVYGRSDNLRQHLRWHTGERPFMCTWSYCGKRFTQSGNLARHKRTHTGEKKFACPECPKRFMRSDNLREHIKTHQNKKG
ZFP SBS#920 (synthetic), sequence (chain, as listed by the source): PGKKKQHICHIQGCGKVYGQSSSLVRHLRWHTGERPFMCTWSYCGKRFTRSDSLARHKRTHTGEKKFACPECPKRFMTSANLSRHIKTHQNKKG
ZFP SBS#727, sequence (P08047 other isoform, or with tags, fused parts or gaps): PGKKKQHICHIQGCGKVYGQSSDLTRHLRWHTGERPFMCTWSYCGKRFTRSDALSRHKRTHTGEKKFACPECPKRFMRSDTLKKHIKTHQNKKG

B1: GGGGAGCAGC (dsDNA)
DNA 1: GGGGAGCAGC
DNA 2: GCTGCTCCCC
B1 showed a Kd (ZFP SBS#781) of 4.25 nM.

B2: GCGGTGGCTC (dsDNA)
DNA 1: GCGGTGGCTC
DNA 2: GAGCCACCGC
In the case of B2, the Kd (ZFP SBS#761) is reported as 6 nM, the Kd (ZFP SBS#762) is reported as 18 nM and the Kd (ZFP SBS#727) is reported as 0.1 nM. It also gave a Kd (ZFP SBS#735) of 0.05 nM.

B3: GACGACGGC (dsDNA)
DNA 1: GACGACGGC
DNA 2: GCCGTCGTC
Binder B3 has a Kd (ZFP SBS#431) of 100 nM.

B4: TTGGACGGCG (dsDNA)
DNA 1: TTGGACGGCG
DNA 2: CGCCGTCCAA
In the case of B4, the Kd (ZFP SBS#748) is reported as 112 nM, the Kd (ZFP SBS#749) is reported as 11.3 nM and the Kd (ZFP SBS#759) is reported as 37 nM. For the same binder, the Kd (ZFP SBS#760) was 148 nM.

B5: GTGGAAGAA (dsDNA)
DNA 1: GTGGAAGAA
DNA 2: TTCTTCCAC
B5 gave a Kd (ZFP SBS#909) of 16.4 nM.

B6: GCGGGGTCC (dsDNA)
DNA 1: GCGGGGTCC
DNA 2: GGACCCCGC
Binder B6 has a Kd (ZFP SBS#256) of 800 nM.

B7: GAGGAAGGA (dsDNA)
DNA 1: GAGGAAGGA
DNA 2: TCCTTCCTC
Binder B7 has a Kd (ZFP SBS#916) of 1.3 nM.

B8: CGGGGAGCAG (dsDNA)
DNA 1: CGGGGAGCAG
DNA 2: CTGCTCCCCG
Work on B8 yielded a Kd (ZFP SBS#780) of 0.5 nM and a Kd (ZFP SBS#779) of 0.5 nM.

B9: GTGGTGGTG (dsDNA)
DNA 1: GTGGTGGTG
DNA 2: CACCACCAC
Binder B9 has a Kd (ZFP SBS#905) of 1.15 nM and a Kd (ZFP SBS#926) of 7.5 nM.

B10: GATGTGGTA (dsDNA)
DNA 1: GATGTGGTA
DNA 2: TACCACATC
B10 was tested, and the Kd (ZFP SBS#920) was 4 nM.

B11: ATGGACGGGT (dsDNA)
DNA 1: ATGGACGGGT
DNA 2: ACCCGTCCAT
B11 gave a Kd (ZFP SBS#777) of 3.4 nM and a Kd (ZFP SBS#776) of 0.4 nM.

B12: GAGGGAGCGA (dsDNA)
DNA 1: GAGGGAGCGA
DNA 2: TCGCTCCCTC
B12 was tested, and the Kd (ZFP SBS#826) was 2.75 nM, the Kd (ZFP SBS#827) was 1.2 nM and the Kd (ZFP SBS#750) was 52 nM.

B13: AGGGAGGATG (dsDNA)
DNA 1: AGGGAGGATG
DNA 2: CATCCTCCCT
Work on B13 yielded a Kd (ZFP SBS#787) of 4 nM.

B14: TTGGGAGCGG (dsDNA)
DNA 1: TTGGGAGCGG
DNA 2: CCGCTCCCAA
B14 gave a Kd (ZFP SBS#783) of 2000 nM, a Kd (ZFP SBS#786) of 2000 nM and a Kd (ZFP SBS#785) of 50 nM.

B15: AAGGGTGAC (dsDNA)
DNA 1: AAGGGTGAC
DNA 2: GTCACCCTT
Work on B15 yielded a Kd (ZFP SBS#904) of 1 nM.

B16: CAGGTTGAG (dsDNA)
DNA 1: CAGGTTGAG
DNA 2: CTCAACCTG
In the case of B16, the Kd (ZFP SBS#927) is reported as 3.61 nM and the Kd (ZFP SBS#928) is reported as 25 nM.

B17: CAGGTAGAT (dsDNA)
DNA 1: CAGGTAGAT
DNA 2: ATCTACCTG
In the case of B17, the Kd (ZFP SBS#929) is reported as 1.3 nM.

B18: TCAGAGGTG (dsDNA)
DNA 1: TCAGAGGTG
DNA 2: CACCTCTGA
B18 showed a Kd (ZFP SBS#912) of 0.135 nM.

B19: CAGGAAAAG (dsDNA)
DNA 1: CAGGAAAAG
DNA 2: CTTTTCCTG
B19 was tested, and the Kd (ZFP SBS#914) was 1.26 nM and the Kd (ZFP SBS#915) was 45.1 nM.

B20: AAGGTCTCA (dsDNA)
DNA 1: AAGGTCTCA
DNA 2: TGAGACCTT
For B20, the Kd (ZFP SBS#922) was 4 nM, the Kd (ZFP SBS#908) was 50 nM and the Kd (ZFP SBS#921) was 11 nM. For the same binder, the Kd (ZFP SBS#923) was 2 nM.
